Reference: patent publication US5863889A, “ICAM-1/LFA-1 short-chain peptides and method of using same” (The University of Kansas, priority 1996, dated 1999)
Entries after “also recorded” stand apart in the source; their conditions may differ.

What was measured:
ICAM-1 = molecular target: T1, ICAM-1 (Homo sapiens, UniProt P05362); assay: Conformation modulator assay: flow cytometry of FITC-labeled RB-1-88 binding to T-cells after pre-incubation with first peptide; assay type: cell-based; conditions: first peptide 4550 μM
T1 construct: host or cells: Molt3 human T-cell leukemia line
T1 sequence (P05362 28-532): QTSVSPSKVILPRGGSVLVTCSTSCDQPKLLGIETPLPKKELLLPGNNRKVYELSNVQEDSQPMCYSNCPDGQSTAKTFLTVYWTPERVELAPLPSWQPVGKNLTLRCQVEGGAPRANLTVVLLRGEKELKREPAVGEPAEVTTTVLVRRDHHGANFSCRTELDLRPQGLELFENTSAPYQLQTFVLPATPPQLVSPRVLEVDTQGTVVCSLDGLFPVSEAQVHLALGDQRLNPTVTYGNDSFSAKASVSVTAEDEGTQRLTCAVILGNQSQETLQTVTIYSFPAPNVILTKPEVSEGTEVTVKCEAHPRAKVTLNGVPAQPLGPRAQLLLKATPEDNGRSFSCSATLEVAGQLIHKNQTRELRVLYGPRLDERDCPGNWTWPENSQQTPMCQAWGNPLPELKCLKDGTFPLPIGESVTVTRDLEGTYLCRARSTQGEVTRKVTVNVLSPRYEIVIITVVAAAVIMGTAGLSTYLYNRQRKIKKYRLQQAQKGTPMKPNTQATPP
Protocol: The antibody binding assay of Example 2 was twice repeated at a peptide concentration of 4550 μM, each time substituting a 455 nmol quantity of synthetic peptide selected from the group consisting of ICAM-based peptide SC-3-111 (Sequence ID No. 10) and LFA-based peptide LJCRF-4 (Sequence ID No. 16) in respective assays. Following incubation for 30 minutes at 37° C. after introduction of the first peptides, both incubated culture were supplemented by an additional quantity of FITC-labeled RB-1-88 (Sequence ID No. 19) peptide in a quantity sufficient to provide a 1.90 μM concentration in the cell/PBS solution.
Following addition of the RB-1-88 (Sequence ID No. 19) peptide, the mixture was incubated for 30 minutes at 4° C., washed three times with 500 μl PBS/BSA, resuspended in 500 μl PBS/BSA and immediately subjected to a flow cytometer analysis as before. Table 3 presents the results of this analysis, which are also depicted in FIGS. 8 (SC-3-111) and 9 (LJCRF-4).

LFA-1 (CD11a) = molecular target: T2, LFA-1 (CD11a) (Homo sapiens, UniProt P20701); assay: Antibody binding assay (FACS): anti-LFA-1 mAb (mouse IgG anti-human CD11a) binding to Molt3 T-cells after peptide incubation; assay type: cell-based; conditions: for Fluorescence, % change from control of the medium fluorescence intensity: mAb CD11a, average ± standard error of runs
T2 construct: host or cells: Molt3 human T-cell leukemia line
T2 sequence (P20701 26-1170): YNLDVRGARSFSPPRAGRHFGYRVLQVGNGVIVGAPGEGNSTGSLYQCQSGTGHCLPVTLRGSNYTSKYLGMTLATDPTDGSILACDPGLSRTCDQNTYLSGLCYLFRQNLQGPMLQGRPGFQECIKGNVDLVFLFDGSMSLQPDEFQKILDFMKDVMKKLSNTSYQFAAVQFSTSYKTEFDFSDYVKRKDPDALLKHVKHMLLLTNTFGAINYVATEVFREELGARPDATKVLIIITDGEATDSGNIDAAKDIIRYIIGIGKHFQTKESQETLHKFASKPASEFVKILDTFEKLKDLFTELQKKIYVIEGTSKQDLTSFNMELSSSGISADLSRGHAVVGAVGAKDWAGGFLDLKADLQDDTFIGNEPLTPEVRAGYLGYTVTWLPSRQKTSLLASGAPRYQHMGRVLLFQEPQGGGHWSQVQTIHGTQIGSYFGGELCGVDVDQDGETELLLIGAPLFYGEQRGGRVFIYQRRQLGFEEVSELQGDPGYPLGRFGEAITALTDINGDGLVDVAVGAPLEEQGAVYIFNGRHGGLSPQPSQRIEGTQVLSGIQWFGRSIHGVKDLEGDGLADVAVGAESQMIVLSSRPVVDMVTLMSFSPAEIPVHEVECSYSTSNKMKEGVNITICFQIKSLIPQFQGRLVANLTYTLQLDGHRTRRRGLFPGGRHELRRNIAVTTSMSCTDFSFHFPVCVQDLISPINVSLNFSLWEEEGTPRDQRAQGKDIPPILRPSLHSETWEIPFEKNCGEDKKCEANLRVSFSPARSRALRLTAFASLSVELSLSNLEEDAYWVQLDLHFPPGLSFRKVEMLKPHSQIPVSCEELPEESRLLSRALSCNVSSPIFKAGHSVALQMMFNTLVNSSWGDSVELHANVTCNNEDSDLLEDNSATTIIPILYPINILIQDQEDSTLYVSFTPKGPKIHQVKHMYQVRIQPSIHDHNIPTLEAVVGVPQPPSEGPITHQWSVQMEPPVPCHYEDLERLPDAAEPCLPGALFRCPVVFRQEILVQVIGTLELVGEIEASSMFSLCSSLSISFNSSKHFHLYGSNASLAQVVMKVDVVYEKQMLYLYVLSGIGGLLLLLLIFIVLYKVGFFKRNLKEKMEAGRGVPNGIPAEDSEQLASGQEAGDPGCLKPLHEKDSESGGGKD
T2 sequence (P05107 23-769 partner): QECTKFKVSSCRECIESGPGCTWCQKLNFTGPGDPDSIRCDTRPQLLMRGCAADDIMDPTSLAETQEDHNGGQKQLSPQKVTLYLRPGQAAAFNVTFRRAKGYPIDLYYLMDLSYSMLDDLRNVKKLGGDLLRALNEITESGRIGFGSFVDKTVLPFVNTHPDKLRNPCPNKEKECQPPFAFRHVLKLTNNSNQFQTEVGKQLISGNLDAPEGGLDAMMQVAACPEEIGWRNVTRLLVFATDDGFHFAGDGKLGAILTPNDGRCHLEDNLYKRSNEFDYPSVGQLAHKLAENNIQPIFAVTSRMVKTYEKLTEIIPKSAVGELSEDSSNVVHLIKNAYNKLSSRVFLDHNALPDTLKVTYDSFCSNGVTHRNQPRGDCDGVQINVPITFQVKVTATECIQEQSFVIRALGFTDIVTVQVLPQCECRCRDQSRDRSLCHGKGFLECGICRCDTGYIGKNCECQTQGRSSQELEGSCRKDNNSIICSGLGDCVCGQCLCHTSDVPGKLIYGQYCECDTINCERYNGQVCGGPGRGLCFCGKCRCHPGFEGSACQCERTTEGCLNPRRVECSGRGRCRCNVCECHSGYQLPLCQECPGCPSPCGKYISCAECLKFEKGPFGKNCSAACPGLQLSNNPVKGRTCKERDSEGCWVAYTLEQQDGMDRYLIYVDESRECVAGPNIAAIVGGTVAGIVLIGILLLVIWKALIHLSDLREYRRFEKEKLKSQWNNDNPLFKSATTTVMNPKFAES
Protocol: A 1 ml quantity of the Molt3 inoculum was warmed to 37° C. and transferred by pipette into about 25 ml of a growth culture medium including RPMI 1640 lymphocyte growth medium (Fisher Scientific of St. Louis, Miss.) mixed with 10% by volume fetal calf serum, 100 units/ml penicillin, 100 μg/ml streptomycin and 2 mM glutamine. The inoculated culture was incubated for three to four days at 37° C. under a normal atmosphere having about 5% CO2 added thereto. This culture was capable of being maintained indefinitely by siphoning away the top (non-cell containing) layer and adding 50 ml (or more) of growth culture medium at intervals of three to four days.
An aqueous buffer solution including Dulbecco's phosphate buffered saline and bovine serum albumin ("-PBS/BSA solution") was prepared for use, and included a mixture of 200 mg KH2 PO4, 1.15 g Na2 HPO4, 100 mg CaCl2, 200 mg KCl, 100 mg MgCl2.6H2 O, 8 g NaCl, with distilled water added to a final 1 liter volume at room temperature, thus, forming a "PBS" solution of pH 7.4 to which was added 0.5% by weight bovine serum albumin.
An aliquot of about 7 ml was removed from the incubated culture medium and subjected to washing with the PBS/BSA solution. The washing procedure was initiated by placing the aliquot in a centrifuge (Model GT422 from Jouan, distributed Piruscio & Assoc. of Manchester, Miss.) at 1400 rpm for 6.5 minutes to separate the cells from the growth medium. The supernatant fluid was decanted, a 5 ml portion of PBS/BSA solution was transferred by pipette into the pellet, and the mixture was again centrifuged as before. The resulting supernatant fluid was decanted and the cells from the pellet were resuspended in PBS/BSA solution at a titer of about 1×10^6 cells/ml. A 500 μl portion of the solution containing the resuspended cells was placed in a microcentrifuge (Marathon 13K/M from Fisher Scientific of St. Louis, Miss.) at 3500 rpm for six minutes, to provide a washed pellet.
[…] The cells were incubated with the peptide cocktail at 37° C. for 45 minutes.
After incubation with the peptide cocktail, several antibodies were successively mixed into the incubated solution. A 75 μl portion of anti-IgM solution (a mixture of 10 μl of goat anti-human IgM stock purchased from Jackson Immuno Research of Westgrove, Pa.; and 65 μl of PBS/BSA solution) was added to the peptide cocktail for blocking of nonspecific binding of the secondary antibody. The resulting mixture was incubated for 10 minutes on ice. About 0.1 μg of a primary antibody including mouse IgG anti-human CD11a (purified according to conventional protocols at the University of Kansas Department of Pharmacology and Toxicology from an American Type Culture hybridoma cell line having Catalogue Number HB-202) was next stirred into the mixture, which was then incubated for 30 minutes at room temperature. The incubated mixture was placed in a microcentrifuge at 3500 rpm for six minutes to remove the cells from the mixture, and the cell pellet was washed two times by adding 500 μl aliquots of PBS/BSA solution and microfuging to remove non-bound antibodies from the cells as before. The resulting washed pellet was resuspended in 100 μl of a secondary antibody cocktail including 5 μl of fluorescein isothiocyanate ("FITC") labeled goat anti-mouse IgG (from CALTAG of South San Francisco, Calif.) and 95 μl of PBS/BSA solution. The resulting solution was incubated for 30 minutes at room temperature in the dark.
The incubated solution including the secondary antibody cocktail was microfuged at 3500 rpm for six minutes to remove the cells from the solution, and the cell pellet was washed two times with 500 μl portions of PBS/BSA solution, as before, to remove unbound antibodies. […]

## SC-3-111: ICAM-1 based short-chain peptide, Sequence ID No. 10 (QTSVSPSKVI)
ICAM-1; then FITC-labeled RB-1-88 1.90 μM, shift vs control
  FACS Analysis (RB-1-88 binding): -8%
ICAM-1; then RB-1-88 1.90 μM, called probably not significant
  negative blocking shift of RB-1-88 binding (FIG. 8): 8%
ICAM-1; FIGS. 8, 9
  effect on binding of labeled peptide (RB-1-88 / LJCRF-6) to T-cell ICAM-1: substantially no T-cell binding enhancement; also recorded: no effect
LFA-1 (CD11a); peptide 2275 μM
  Fluorescence, % change from control of the medium fluorescence intensity: -12 ± 4%
LFA-1 (CD11a); peptide 4550 μM, negative = blocking
  Fluorescence, % change from control of the medium fluorescence intensity: -29 ± 2%
LFA-1 (CD11a); single above-average run (FIGS. 2, 3), peptide 4550 μM, anti-CD11a
  blocking efficiency: 51%
LFA-1 (CD11a); single run of FIG. 2 (control 264.41), anti-CD11a
  sample median peak fluorescence intensity value: 128.74
LFA-1 (CD11a); single run of FIG. 2, peptide 4550 μM, anti-CD11a
  % change of median peak vs control: -51%
